Data as given in patent EP3277718B1 (Baxalta GmbH, dated 2021).

Assays:
[1] = target: T1, human MIF (macrophage migration inhibitory factor), recombinant (human, UniProt P14174 2-115); experiment: cell-based or functional assay
[2] = target: T1, human MIF (macrophage migration …); experiment: SPR, Biacore 3000, RAM9 amine-coupled to CM5 chip, MIF injected at 40-480 nM, 1:1 Langmuir fit with mass transfer

T1 sequence (P14174 2-115 limits assumed): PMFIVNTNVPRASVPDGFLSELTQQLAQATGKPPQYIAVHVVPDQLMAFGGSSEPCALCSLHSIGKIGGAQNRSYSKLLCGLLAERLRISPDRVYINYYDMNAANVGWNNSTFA

B1: RAM9 (antibody, human IgG1, kappa, V domains shown)
VH: EVQLLESGGGLVQPGGSLRLSCAASGFTFSIYSMNWVRQAPGKGLEWVSSIGSSGGTTYYADSVKGRFTISRDNSKNTLYLQMNSLRAEDTAVYYCAGSQWLYGMDVWGQGTTVTVSS
VL: DIQMTQSPSSLSASVGDRVTITCRSSQRIMTYLNWYQQKPGKAPKLLIFVASHSQSGVPSRFRGSGSETDFTLTISGLQPEDSATYYCQQSFWTPLTFGGGTKVEIKR
notes: also deposited as plasmids DSM 25860 (hc) and DSM 25859 (lc); also called anti-MIF antibody RAM9; anti-oxMIF antibody
For B1, the “Potency (IC 50); inhibition of random migration of human U937 cells, Transwell chemokinesis assay” value [1] was 1 nM and the Kd [2] was 1.7 nM.
